Tests used:
p.G542X-CFTR mRNA = experiment: qPCR of steady state CFTR mRNA (NMD inhibition) in p.G542X 16HBE14o- cells; format: cell-based, human; conditions: 48 hours after transfection, ACE-tRNA^Gly delivered as plasmid
Text: (§1) (A) Representative image of 16HBE14o- cells transfected on Transwells. (B) Representative Cl^− short circuit current traced from WT (Black), p.R1162X 16HBE14oe- cells transfected with empty vector (red) and 500 bp ACE-tRNA^Arg CEDTs (blue) in Ussing chamber recordings. […] All constructs were transfected at equal amounts. *p<0.05; **p<0.0001.
(§2) The majority of prior studies had used suppressor tRNAs to rescue PTCs encoded from cDNAs. […] In this example, 16HBE14o- cells, human bronchiole epithelial cell line, were used to determine ACE-tRNAs PTC suppression activity within the endogenous genomic landscape. Also used were mutant 16HBE14o- cells, which were CRISPR/Cas9 modified to harbor CF causing PTCs at positions p.G542X-, p.R1162X- and p.W1282X-CFTR. The cells were used to study CFTR and airway epithelia biology (Cozens, A. L. et al. American journal of respiratory cell and molecular biology 10, 38-47 (1994)).
(§3) The inventors next looked to see if ACE-tRNAs inhibited NMD following transfection of ACE-tRNA transcripts.

PTC = experiment: High resolution mass-spectrometry of the amino acid encoded at the PTC
Procedure: Assays were carried out to ascertain whether ACE-tRNAs identified in the screen were functionalized at the expense of recognition by the aminoacyl-tRNA synthetase. […] It was confirmed that using high resolution mass-spectrometry, the cognate amino acid for both ACE-tRNA^GlyUGA and -tRNA^TrpUGA were encoded with high fidelity, resulting in seamless PTC suppression.

UGA codon = experiment: PTC suppression by ACE-tRNA: codon specificity and comparison with aminoglycosides; format: cell-based
Text: Using a novel high throughput cloning (HTC) and screening (HTS) method, a library of more than 500 suppressor tRNAs (ACE-tRNAs) was recently developed. In the library, the anticodon of human tRNA genes were engineered to recognize disease causing PTC codons (UAG, UAA and UGA). The ACE-tRNAs platform targeted all possible PTCs that are resultant of one nucleotide change from translated codons (tRNA^ArgUGA, tRNA^GlnUAA, tRNA^GlnUAG, tRNA^TrpUGA, tRNA^TrpUAG, tRNA^GluUAA, tRNA^GluUAG, tRNA^CysUGA, tRNA^TyrUAG, tRNA^TyrUAA, tRNA^LeuUGA, tRNA^LeuUAG, tRNA^LeuUAA, tRNA^LysUAG, tRNA^LysUGA, tRNA^SerUGA, tRNA^SerUAG, and tRNA^SerUAA).

[1] = test system: nuclei of nondividing cells; experiment: Nuclear localization of DNA after cytoplasmic microinjection; format: cell-based
Text: (D) Schematic of ACE-tRNA MC and CEDT with SV40 DTS.
Inventors have screened over 60 strong general and cell-specific promoters and found seven DTSs. Of these, two perform ubiquitously, while five bind specific transcription factors expressed in a subset of cells.
As an alternative approach to directly labeling the plasmid with Cy3-PNAs, one can also carry out fluorescent in situ hybridization (FISH) to visualize injected DNA. DTS candidate plasmids can be tested for nuclear import activity over a 30 min to 8 hr period in microinjected A549 lung epithelial cells (Dean, D. A. Exp. Cell Res. 230, 293-302 (1997), Dean, D. A., et al., Exp. Cell Res. 253, 713-722 (1999), and Vacik, J., et al., Gene Therapy 6, 1006-1014 (1999)). […] This approach can allow one to rank sequences relative to the SV40 DTS based on their speed of nuclear import. Negative controls of the pUC57 plasmid with no DTS and a positive control of the pUC57-SV40 DTS can also be injected to ensure that the cells remain viable after injection and have the ability to transport DNA into the nucleus.
Importantly, existing MC and CEDT technologies are […] at PTC suppression in both cell culture and in vivo (FIGS. 4-7 and 10). […] Therefore, to improve nuclear targeting, transcription and PTC suppression, ACE-tRNA^ArgUGA MCs and CEDTs with the 72 nucleotide SV40 DTS and generally active DTS are generated. […]

p.W1282X-CFTR mRNA = experiment: qPCR of steady state CFTR mRNA (NMD inhibition) in p.W1282X 16HBE14o- cells; format: cell-based, human; conditions: pW1282X cells; 48 hours after transfection; equal amounts; plain ACE-tRNA^Leu = plasmid
Text: as §1, §2, §3
It had been previously shown that leucine at CFTR p.W1282 (p.W1282L) gives ˜80% WT CFTR function, as measured with Ussing chamber recordings (Xue, X. et al., Human molecular genetics 26, 3116-3129, doi:10.1093/hmg/ddx196 (2017)).

W1282X-CFTR mRNA = experiment: CFTR mRNA expression in W1282X-CFTR 16HBE14ge- cells; format: cell-based, human
Procedure: In this example, studies were carried out to examine and compare rescues of endogenous CFTR PTCs with a conventional PTC readthrough agent (i.e., G418) and ACE-tRNAs delivered in plasmids. To that end, an engineered human bronchiole epithelial cell line, 16HBE14ge-, was used (Valley et al., Journal of Cystic Fibrosis, Volume 18, Issue 4, July 2019, Pages 476-483). G418 (Geneticin) is a standard PTC readthrough agent that works by interacting with the decoding center of the ribosome and promoting the suppression of PTCs with near-cognate tRNAs, thus incorporating wrong amino acids in many instances. Due to its non-specific nature, rescue by G418 results in generation of a missense mutation from a nonsense mutation. In contrast, ACE-tRNAs as disclosed herein put in the desired amino acid.
To carry out the assays, wildtype 16HBE14ge- cells or 16HBE14ge- cells having the W1282X-CFTR or R1162X-CFTR mutation were (i) treated with 100 uM G418 or vehicle, or (ii) transfected with empty plasmids or various plasmids encoding one or four copies of three ACE-tRNAs (SEQ ID NOs: 8, 4, and 1): 1×ACE-tRNA^Arg 4×ACE-tRNA^Arg, 1×ACE-tRNA^Leu 4×ACE-tRNA^Leu, 1×ACE-tRNA^Trp, and 4×ACE-tRNA^Trp in the manner described in Example 4. After 48 hours, the corresponding CFTR mRNA expression levels were then determined.
In this example, assays were carried out to examine and compare rescues of endogenous CFTR PTCs with ACE-tRNAs delivered in different formats e.g., plasmids, CEDTs, and MCs. The above described 16HBE14ge- cells, which expressed the PTC readthrough reporter piggyBac transgene (FIG. 15A) was used. More specifically, the cells were transfected with plasmids, CEDTs, or MCs encoding ACE-tRNAs. The cells were then sorted by FACS and mRNA was isolated from the non-green cells and green cells. Targeted RT-qPCR was used to quantify CFTR mRNA expression. […]
Further assays were carried out using 16HBEge- cells having W1282X-CFTR and the PTC readthrough reporter piggyBac transgene. […] The cells were NOT sorted by FACS for mRNA expression analysis, rather the entire population was analyzed.

B1: ACE-tRNA^GlyUGA: anti-codon edited glycine tRNA recognizing the UGA PTC, SEQ ID NO: 5 (nucleic acid)
chain: GCGUUGGUGGUAUAGUGGUUAGCAUAGCUGCCUUCAAAGCAGUUGACCCGGGUUCGAUUCCCGGCCAACGCA
modifications: expressed or natural sequence
How did the “inhibition of NMD measured by qPCR” value (p.G542X-CFTR mRNA) turn out when B1 was run?
The value was “significantly inhibited NMD”.

And the “fidelity of encoding the cognate amino acid” value (PTC)?
Its value is “high fidelity”.

What about the stop codon specificity (UGA codon) of the same molecule?
The stop codon specificity was “specific for the UGA codon”.

What about the “PTC suppression compared with AMG G418 and gentamicin” value (UGA codon; 48 hr incubation in HEK293 cells) of the same molecule?
Its value is “significantly outperformed”.

B2: SV40 sequence: DNA sequence from the SV40 genome containing the enhancer repeats, DNA nuclear targeting sequence (nucleic acid)
DNA: ATGCTTTGCATACTTCTGCCTGCTGGGGAGCCTGGGGACTTTCCACACCCTAACTGACACACATTCCACAGCTGGTTGGTACCTGCA
modifications: listed as DNA, chemistry not fully specified
How did the “localization after cytoplasmic injection” value [1] turn out when B2 was run?
Its value is “nuclear localization”.

What about the “time to plasmid nuclear import” value [1] of the same molecule?
Its value is ≤ 30 min.

B3: ACE-tRNA^LeuUGA: anti-codon edited leucine tRNA recognizing the UGA PTC, SEQ ID NO: 4 (nucleic acid)
chain: ACCAGAAUGGCCGAGUGGUUAAGGCGUUGGACUUCAGAUCCAAUGGAUUCAUAUCCGCGUGGGUUCGAACCCCACUUCUGGUA
modifications: expressed or natural sequence
Which “inhibition of NMD / rescue measured by qPCR” value (p.W1282X-CFTR mRNA) does the source give for B3 here?
The value was “significantly inhibited NMD”.

What about the “rescue of CFTR mRNA” value (W1282X-CFTR mRNA; delivered via plasmids, FACS-sorted GFP+ and GFP− cells, RT-qPCR) of the same molecule?
Its value is “significantly rescued”.

And the “suppression of W1282X compared with Tryptophan ACE-tRNA” value (W1282X-CFTR mRNA; plasmids, 48 hours)?
Its value is “more effectively”.

What about the “inhibiting nonsense mediated decay compared with G418” value (W1282X-CFTR mRNA; plasmids, G418 100 uM, 48 hours, W1282X-CFTR cells) of the same molecule?
The value was “significantly more effective”.

— patent publication US20230272378A1, “ENCODING AND EXPRESSION OF ACE-tRNAs” (University of Rochester, priority 2020, published 2023)
